The subject of data set [1] is DrDprA (Deinococcus radiodurans R1 (ATCC 13939)). Description: EMSA. Conditions: EMSA: 10 mM Tris-HCl pH 7.5, 50 mM NaCl, 1 mM DTT, 10 min at 37 C, 2 nM 32P probe. For orientation: A gel shift assay detects complexes by their altered migration in electrophoresis.
Data set [2] has as its target DNA processing protein A of Deinococcus radiodurans (DrDprA), purified recombinant wild type (D. radiodurans). Description: SPR; 2.5 uM DrDprA immobilised on a bare gold sensor chip by EDC-NHS chemistry at 20 C (Autolab Esprit); DrRecA 0.5 to 3 uM in the mobile phase, 20 mM Tris pH 7.6, 1 mM MgCl2. Background: SPR reads the build-up and loss of mass on a sensor chip optically.

For three molecules, Kd results are on record in paper PMC9769556.

The term Kd denotes the concentration at which binding is half-saturated. As to 167-bp dsDNA, in data set [1], the dissociation constant (Kd) is 3.53 µM.

167-mer ssDNA came in with an equilibrium dissociation constant (Kd) in data set [1] of 3.04 µM.

B1: RecA of Deinococcus radiodurans (DrRecA), purified (natural protein)
chain: MSKDATKEISAPTDAKERSKAIETAMSQIEKAFGKGSIMKLGAESKLDVQVVSTGSLSLDLALGVGGIPRGRITEIYGPESGGKTTLALAIVAQAQKAGGTCAFIDAEHALDPVYARALGVNTDELLVSQPDNGEQALEIMELLVRSGAIDVVVVDSVAALTPRAEIEGDMGDSLPGLQARLMSQALRKLTAILSKTGTAAIFINQVREKIGVMYGNPETTTGGRALKFYASVRLDVRKIGQPTKVGNDAVANTVKIKTVKNKVAAPFKEVELALVYGKGFDQLSDLVGLAADMDIIKKAGSFYSYGDERIGQGKEKTIAYIAERPEMEQEIRDRVMAAIRAGNAGEAPALAPAPAAPEAAEA
In the case of B1, in data set [2], the equilibrium dissociation constant (Kd) is 0.293 µM.
